Assay results: the supplement of paper PMC11246515
± gives the standard deviation of the averaged measurements.

Assay: total protein half-life in vivo (active degradation + dilution); higher = more stable protein
[1] = E. coli NCM3722 delta-clpP delta-lon delta-hslV, growth: N-lim chemostat, doubling time 6 h
[2] = E. coli NCM3722 delta-clpP, growth: N-lim chemostat, doubling time 6 h
[3] = E. coli NCM3722 delta-hslV, growth: N-lim chemostat, doubling time 6 h
[4] = E. coli NCM3722 delta-lon, growth: N-lim chemostat, doubling time 6 h
[5] = E. coli NCM3722 delta-smpB, growth: N-lim chemostat, doubling time 6 h
[6] = wild type E. coli NCM3722, growth: C-lim chemostat, doubling time 3 h
[7] = wild type E. coli NCM3722, growth: C-lim chemostat, doubling time 6 h
[8] = wild type E. coli NCM3722, growth: C-lim chemostat, doubling time 12 h
[9] = wild type E. coli NCM3722, growth: N-lim chemostat, doubling time 6 h
[10] = wild type E. coli NCM3722, growth: N-lim chemostat, doubling time 12 h
[11] = wild type E. coli NCM3722, growth: P-lim chemostat, doubling time 6 h
[12] = wild type E. coli NCM3722, growth: P-lim chemostat, doubling time 12 h

Sequence | total protein half-life in vivo [1] [h] | total protein half-life in vivo [2] [h] | total protein half-life in vivo [3] [h] | total protein half-life in vivo [4] [h] | total protein half-life in vivo [5] [h] | total protein half-life in vivo [6] [h] | total protein half-life in vivo [7] [h] | total protein half-life in vivo [8] [h] | total protein half-life in vivo [9] [h] | total protein half-life in vivo [10] [h] | total protein half-life in vivo [11] [h] | total protein half-life in vivo [12] [h]
MVWLANPERYGQMQYRYCGKSGLRLPALSLGLWHNFGHVNALESQRAILRKAFDLGITHFDLANNYGPPPGSAEENFGRLLREDFAAYRDELIISTKAGYDMWPGPYGSGGSRKYLLASLDQSLKRMGLEYVDIFYSHRVDENTPMEETASALAHAVQSGKALYVGISSYSPERTQKMVELLREWKIPLLIHQPSYNLLNRWVDKSGLLDTLQNNGVGCIAFTPLAQGLLTGKYLNGIPQDSRMHREGNKVRGLTPKMLTEANLNSLRLLNEMAQQRGQSMAQMALSWLLKDDRVTSVLIGASRAEQLEENVQALNNLTFSTKELAQIDQHIADGELNLWQASSDK | 5.44 ± 0.59 | 5.3 ± 0.24 | 4.93 ± 0.43 | 5.69 ± 0.77 | 4.18 ± 0.68 | 3.2 ± 0.16 | 6.28 ± 0.24 | 11.4 ± 1.3 | 5.12 ± 0.82 | 8.176 ± 0.024 | 6.24 ± 0.32 | 12.4 ± 1.1
MYAAKGTQAYAQIGVESAVMSASQQQLVTMLFDGVLSALVRASLFMQDNNQQGKGVSLSKAINIIENGLRVSLDEESKDELTQNLIALYSYMVRRLLQANLRNDVSAVEEVEALMRNIADAWKESLLSPSLIQDPV | – | – | – | – | – | 0.207 ± 0.029 | – | – | – | – | – | –
MYDFNLVLLLLQQMCVFLVIAWLMSKTPLFIPLMQVTVRLPHKFLCYIVFSIFCIMGTWFGLHIDDSIANTRAIGAVMGGLLGGPVVGGLVGLTGGLHRYSMGGMTALSCMISTIVEGLLGGLVHSILIRRGRTDKVFNPITAGAVTFVAEMVQMLIILAIARPYEDAVRLVSNIAAPMMVTNTVGAALFMRILLDKRAMFEKYTSAFSATALKVAASTEGILRQGFNEVNSMKVAQVLYQELDIGAVAITDREKLLAFTGIGDDHHLPGKPISSTYTLKAIETGEVVYADGNEVPYRCSLHPQCKLGSTLVIPLRGENQRVMGTIKLYEAKNRLFSSINRTLGEGIAQLLSAQILAGQYERQKAMLTQSEIKLLHAQVNPHFLFNALNTIKAVIRRDSEQASQLVQYLSTFFRKNLKRPSEFVTLADEIEHVNAYLQIEKARFQSRLQVNIAIPQELSQQQLPAFTLQPIVENAIKHGTSQLLDTGRVAISARREGQHLMLEIEDNAGLYQPVTNASGLGMNLVDKRLRERFGDDYGISVACEPDSYTRITLRLPWRDEA [P0AD14] | – | – | – | – | – | 2.82 ± 0.28 | 5.37 ± 0.45 | 10.9 ± 0.79 | – | – | 6.05 ± 0.33 | 11.1 ± 1.1
MYDNLKSLGITNPEEIDRYSLRQEANNDILKIYFQKDKGEFFAKSVKFKYPRQRKTVVADGVGQGYKEVQEISPNLRYIIDELDQICQRDRSEVDLKRKILDDLRHLESVVTNKISEIEADLEKLTRK | – | 4.32 ± 0.1 | 4.18 ± 0.52 | 4.82 ± 0.08 | 3.61 ± 0.31 | 3.26 ± 0.19 | 5.55 ± 0.13 | 8.4 ± 0.45 | 3.77 ± 0.094 | 6.16 ± 0.23 | 5.45 ± 1.6 | 12 ± 0.17
MYEALLVVFLIVAIGLVGLIMLQQGKGADMGASFGAGASATLFGSSGSGNFMTRMTALLATLFFIISLVLGNINSNKTNKGSEWENLSAPAKTEQTQPAAPAKPTSDIPN [P0AG99] | 3.64 ± 0.31 | 3.46 ± 0.55 | 3.996 ± 0.032 | 4.58 ± 0.069 | 3.78 ± 0.13 | 2.33 ± 0.097 | 4.91 ± 1.3 | 6.22 ± 0.14 | 3.81 ± 0.04 | 4.95 | 3.41 ± 0.17 | 6.12 ± 0.75
MYEFDWSSIVPSLPYLLDGLVITLKITVTAVVIGILWGTMLAVMRLSSFAPVAWFAKAYVNVFRSIPLVMVLLWFYLIVPGFLQNVLGLSPKNDIRLISAMVAFSMFEAAYYSEIIRAGIQSISRGQSSAALALGMTHWQSMKLIILPQAFRAMVPLLLTQGIVLFQDTSLVYVLSLADFFRTASTIGERDGTQVEMILFAGFVYFVISLSASLLVSYLKRRTA [P0AER5] | 7.04 | 5.18 | 6.35 | 5.47 | 5.15 ± 0.1 | – | 6.05 ± 0.51 | 12.6 ± 1.8 | 5.68 ± 0.1 | 9.5 ± 4.4 | 6.36 ± 0.33 | 11.4 ± 0.52
MYFLNDLNFSRRDAGFKARKDALDIASDYENISVVNIPLWGGVVQRIISSVKLSTFLCGLENKDVLIFNFPMAKPFWHILSFFHRLLKFRIVPLIHDIDELRGGGGSDSVRLATCDMVISHNPQMTKYLSKYMSQDKIKDIKIFDYLVSSDVEHRDVTDKQRGVIYAGNLSRHKCSFIYTEGCDFTLFGVNYENKDNPKYLGSFDAQSPEKINLPGMQFGLIWDGDSVETCSGAFGDYLKFNNPHKTSLYLSMELPVFIWDKAALADFIVDNRIGYAVGSIKEMQEIVDSMTIETYKQISENTKIISQKIRTGSYFRDVLEEVIDDLKTR | 6.47 | 7.29 | – | 5.02 ± 0.14 | 4.15 ± 0.31 | – | – | – | – | – | – | –
MYLRPDEVARVLEKVGFTVDVVTQKAYGYRRGENYVYVNREARMGRTALVIHPTLKERSSTLAEPASDIKTCDHYQQFPLYLAGERHEHYGIPHGFSSRVALERYLNGLFGEAS [P0AD53] | 4.77 ± 0.34 | 1.5 | 0.818 | 2.99 ± 0.41 | 0.698 ± 0.21 | 1.18 ± 0.14 | 1.81 ± 0.54 | 1.42 | 0.609 ± 0.47 | 1.14 | 1.03 ± 0.22 | 2.61
MYQDLIRNELNEAAETLANFLKDDANIHAIQRAAVLLADSFKAGGKVLSCGNGGSHCDAMHFAEELTGRYRENRPGYPAIAISDVSHISCVGNDFGFNDIFSRYVEAVGREGDVLLGISTSGNSANVIKAIAAAREKGMKVITLTGKDGGKMAGTADIEIRVPHFGYADRIQEIHIKVIHILIQLIEKEMVK | 4.5 ± 0.5 | 4.44 ± 0.26 | 4.63 ± 0.36 | 5.19 ± 0.35 | 4.26 ± 0.082 | 3.04 ± 0.14 | 5.89 ± 0.46 | 11 ± 0.45 | 4.37 ± 0.08 | 7.07 ± 0.52 | 5.73 ± 0.15 | 11.13 ± 0.11
